The source of these data is the nanobody polyreactivity screen of Harvey et al. (2022).

The series is described as follows: yeast display, Sf9 membrane polyspecificity reagent, FACS + sequencing; frameworks hold sequencing errors. The essentials:
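A nanobody's polyreactivity label depends on the gate it was sorted from. Yeast display cells were stained with 10% biotinylated, detergent-solubilized Sf9 membrane reagent for 1 hour at 4 °C, enriched on streptavidin microbeads and sorted by FACS. The low and high (top ~1%) gates were set on anti-HA fluorescence for expression and streptavidin fluorescence for reagent binding.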
As for “QVQLVESGGGLVQAGGSLRLSCAASGRIFLTYAMGWYRQAPGKERELVAAISTSGTRTYYADSVKGRFTISRDNAMNTVYLQMNSLKPEDTAVYYCAREKYNYRTYEYWGQGTQVTVSS”, the “polyreactivity (PSR sort gate)” value is recorded as “high polyreactivity”.

Take “QVQLVESGGGLVQAGGSLRLSCAASGSIFRFNAMGWYRQAPGKEREFVAAISSGGRTYYADSVKGRFTISRDNAKNTVYGQRNSLKPDDPAVYYCAALWHRRGSWFRQTGSGYDYWGQGTQVTVSS”: the “polyreactivity (PSR sort gate)” value was “high polyreactivity”.

In the case of “QVQLVESGGGLVQAGGSLRLSCAASGRTFDWYVMGWYRQAPGKERELVASIPGTGSTYYADSVKGRFTISRDNAKNTVYLQMNSLKPEDTAVYYCNVAWIWGKYDYWGQGTQVTVSS”, the “polyreactivity (PSR sort gate)” value is given as “high polyreactivity”.

With “QVQLVESGGGLVQAGGSLRLSCAASGSIYDFYAMGWYRQAPGKERELVAAISWSGTSTYYADSVKGRFTISRDNAKNTVYLQMNSLKPEDTAVYYCAVVAGQSYFNRYDYWGQGTQVTVSS”, the “polyreactivity (PSR sort gate)” value was “low polyreactivity”.

For the sequence “QVQLVESGGGLVQAGGSLRLSCAASGFIITQSAMGWYRQAPGTERELVAAISGNGGRTYYADSVKGRFTISRDNAKNTVYLQMNSLKPEDTAVYYCAVTRPGRRYPFCYDYWGQGTQVTVSS”, the “polyreactivity (PSR sort gate)” value is reported as “low polyreactivity”.

In the case of “QVQLVESGGGLVQAGGSLRLSCAASGLTFHRYAMGWYRQAPGKERELVAAISRSGVTTRYADSVKGRFTISRDNAKNTVYLQMNSLKPEDTAVYYCAAVYRVRKITYDYWGQGTQVTVSS”, the “polyreactivity (PSR sort gate)” value is reported as “high polyreactivity”.

In the case of “QVQLVESGRGLVQAGGSLRLSCAASGIIFYENAMGWYRQAPGKERELVADITQSGGSTYYADSVKGRFTISRDNAKNTVYLQMNSLKPEDTGVYYCAADGYDPYGGLYDYWGQGNQVTVSS”, the “polyreactivity (PSR sort gate)” value is recorded as “low polyreactivity”.

For the sequence “QVQLVESGGGLVQAGGSLRLSCAASGSTLNYYAMAWYRQAPGKEMELVAAITWSGGSTSYADSVKGRFTISRDNAKNTVYLQMNSLKPEDTAVYYCATDFPTVQLYDTDWLSSDMGYWGQGTQVTVSW”, the “polyreactivity (PSR sort gate)” value was “low polyreactivity”.

For “QVQLVESGGGLVQAGGSLRLSCAASGFIFLSYAKGWYRQAPGKERELVATITWSGGRTYYADSVKGRFTISRDNAKNTVYLQMNSLKPEDTAVYYCAKVNTYYNIYVTFDYWGQGTQVTVSS”, the “polyreactivity (PSR sort gate)” value was “low polyreactivity”.

For the sequence “QVQLVESGGGLVQAGGSLSISCAASGRNFGYYTMGWYRQAPGKERELGAAITSGGRTNYADSVKGRFTISRDNAKNTVYLQMNSLKPEDTAVYYCNARRDSTRRGTWYEYWGQGTQVTVSS”, the “polyreactivity (PSR sort gate)” value is “high polyreactivity”.

With “QVQLVESGGGLVQAGGSLRLSCAASGSTFSINAMGWYRQAPGKERELVAAISWRGSGTYYADSVKGRFTISRDNAKNTVYLQMNSLKPEDTAVYYCAAEWDRPLYYPWYVEYDYWGQGTQVTVSS”, the “polyreactivity (PSR sort gate)” value was “high polyreactivity”.

On to “QVQLVESGGGLVQAGGSLRLSCAASASTLNGNAKAWYRQAPGKDRELVAAITTSGGSTYYADSVKGRFTISRDNAKNTDSLQMHSQNPEDTAVYYCNKLIGRRYGWANGYDYWGQGTQVTVSS”, for which the “polyreactivity (PSR sort gate)” value is reported as “low polyreactivity”.

In the case of “QVQLVESGGGLVQAGGSLRLSCAASGFTFTRYAMGWYRQAPGKERELVAAISRRGGSTYYADSVKGRFTISRDNAKNTVYLQMNSLKPEDTAVYYCAKDAGSRTVREFGYWGQGTQVTVSS”, the “polyreactivity (PSR sort gate)” value is recorded as “high polyreactivity”.

In the case of “QVQLVESGGGLVQAGGSLRLSCAASGFTFGVYAMGWYRQAPGKERELVAAITWGDGSTYYADSVKGRFTISRDNAKNTVYLQMYSLKPEDTAVYYCIAVTRRHIYYYWGQGTQVTVSS”, the “polyreactivity (PSR sort gate)” value is reported as “high polyreactivity”.

As to “QVQLQESGRRPGAAGGSPRMSCAASGNIFWVAVMGRYRQAPGKERELVASIGFGCTTYYADSVKCRFTISRDNAKNTVYLQMISLKPEDTAVYYCAAPLYDWGELDYWGQGTQVPVSS”, the “polyreactivity (PSR sort gate)” value is “low polyreactivity”.

For “QVQLVESGGGLVQAGGSLRLSSAASGITFRTNTMGWYRQAPGKERELVASISSGTRTNYADSVKGRFTISRDNAKNTVYLQMNSLKPEDTAVDYCAAGPPRNRYRNARFDYWGQGTQVTVSS”, the “polyreactivity (PSR sort gate)” value was “high polyreactivity”.

As to “QVQLVESGGGLVQAGGSLRLSCAASGSIFVGNAMGWYRQAPGKERELVATITSGCSTYYADSVKGRFTISRDNAMNTVYLQMNSLKPEVTAVYYCAADYDFSKFDYDYWGQGTQVTVSS”, the “polyreactivity (PSR sort gate)” value was “low polyreactivity”.

As to “QVQLVESGGGLVQAGGSLRLSCAASGRIFYLYAMGWYRQAPGKERELVATINTSGGITYYADSVKGRFTISRDNAKNTVYLQMNSLKPEDTAVYYCNADWEWLYFYFRPGGYWGQGTQVTVSS”, the “polyreactivity (PSR sort gate)” value is recorded as “low polyreactivity”.

For “QVQLVESGGGLVQAGGSLRLSCAASVSIFGPYAKGWYRQAPGKERDLDAAISRGSRTNYADSVKGLFTISRDNEKNTVYLQMNSLKPEDTAVYYCAARYVWRSTHHRGSTYDYWRQGTQVTVSS”, the “polyreactivity (PSR sort gate)” value was “high polyreactivity”.

For “QVQLVETGGGLVQAGGSLLLSCAASGFTLLSYAMGWYRQAPGKERELVAAISESGVSTSYADSVKGRFTISRDNAKNTVYLQMKSLKPEDTAFYYCNKSDFWVVIYDSWGQGTQVTVSS”, the “polyreactivity (PSR sort gate)” value is reported as “low polyreactivity”.

“QVQLVESGRGLVQAGGSLRLSCAASGRTFSYYVMGWYRQAPGKERELVAAISDSGGSTYYADSVKGRFTISRDNAKNTVYLQMNSLKPEDTAVYYCATDSYWYRLREYNYWGQGTQVTVSS”: the “polyreactivity (PSR sort gate)” value is reported as “high polyreactivity”.

“QVQLVESGGGLVQAGGSLRLSCAASGGTFNGNTMGWYRQAPGKERELVAVIDWSGGSTYYADSVKGRFTISRDNAKNTVYLQMNSLKPEDTAVYYYNADSDAQFREPKGLYYWGQGTQVTVSS”: the “polyreactivity (PSR sort gate)” value was “low polyreactivity”.

“QVQLVESGGGLVQAGGSLRLSCADSGRTFTRYAMGWYRQAPGKERELVAAISYIGGGTYYADSVKGRFTISRDNAKNTVYLQMNSLKPEDTAVYYCAGYSRQAEYEYWGQGTQVTVSS”: the “polyreactivity (PSR sort gate)” value is on record as “high polyreactivity”.

On to “QYQLVESGGGLVHEGGSLSLRCAASGSNLYYYAMGWYRKAPGKERDLDAAITYSGGNTYYADSVKGRFTISRDNAKNNVYLQMNSLKPEDTAVYYCAADDWSSDYIRYEYWGQGTQVTVSS”, for which the “polyreactivity (PSR sort gate)” value is on record as “low polyreactivity”.

For the sequence “QVQLVESGGGLVQAGGSLRLSCAASGIIFINYVMGWYRQAPGKESELVAAITGSGSSTYYADSVKGRFTISRDNAKNTVYLQMNSLKPEDTAVYYCAADNPRVRFLYYYWGQGTQVTVSS”, the “polyreactivity (PSR sort gate)” value is “high polyreactivity”.

Regarding “QVQLVESGGGLVQAGGSLRLSCAASGLIFRIYAMGWYRQAPGKERELVAAISSTGSRTYYADSVKGRFTISRDNAKNTVYLQMNSLKPEDTAVYYCAAKAYINNYDYWGQGTQVTVSS”, the “polyreactivity (PSR sort gate)” value is listed as “high polyreactivity”.

Take “QVQLVESGGGLVQAGGSLRLSCAASGSTFKPNAMGWSRQAPGKERELVAAINGSGGDTYYADSVKGRFTISRDYANNTFYLQMNSLKPEDTAVYYCAAQWGYYNYWYGYWGQGTQVTVSS”: the “polyreactivity (PSR sort gate)” value is recorded as “low polyreactivity”.

Regarding “QVQLVESGGGLVQAGGSLRLSCAASGRTFAFYTMGWYRQAPGKEREFVAASSWSGGSTHYADSVKGRFTISRDNEKNTVYLQMNSLTQEYTAVYYCAAGPFYRFTDGRDKTLDYWGQGNQVTVSS”, the “polyreactivity (PSR sort gate)” value was “high polyreactivity”.

As for “QVQLVESGGGLVQAGGSLRLSCAASGFIFQKYAMGWYRQAPGKERELVAAIRYDGGSTYYADSVKGRFTISRDNAKNTVYLQMNSLKPDDTAVYYCAAYGPRLLIYPPYRYNYWGQGTQVTVSS”, the “polyreactivity (PSR sort gate)” value is listed as “high polyreactivity”.

For “QVQLVESGGGLVQAGGSLRLSCAASGFTFYYNAMGWYRQAPGKERELVASISSNGTSTYYADSVKGRFTISRDNAMNTVYLQMNSLKPEDTAVYYCNVDIFDPRTYDYWGQGTQVTVSS”, the “polyreactivity (PSR sort gate)” value is recorded as “low polyreactivity”.

For “QVQLVESGGGLVLAGGSLRLSCAASGSIFNVYAMGWYRQAPGKERELVASITRRRTNYADSVKGRFTISRDNAKNTVYLQMNSLKPEDTAVYYCAATTYVRQYATYDYWGQGTQVTVSS”, the “polyreactivity (PSR sort gate)” value is listed as “high polyreactivity”.

For “QVQLVESGGGLVQAGGSLRLSCAASGSIFDYYAMGWYRQAPGKERELVADITSGGSTNYADSVKGRFTISRDNAKNTVYLQMNSLKPEDTAVYYCNALASRYPAYYYWGQGTQVTVSS”, the “polyreactivity (PSR sort gate)” value is recorded as “low polyreactivity”.

As to “QVQLVESGGGLVQAGGSRRLSCAASGNTFYANVMGWYRQAPGKERELVASITWSGGSTYYADSVKGRFTISRDNAKNTVYLQMNSLKPEDTAVYYCATSGDRLVWGQGTQVTVSS”, the “polyreactivity (PSR sort gate)” value is on record as “low polyreactivity”.

For the sequence “QVQLVESGGGLVQAGGSLRLSCAASGFTFDAYTMGWYSQAPGKERELVAAITWSGGRTYYADSVKGRCTISRDNAKTTVYLQLNSLKPEDTALYNCAADSPTSLYEYWGQGTQVTVSS”, the “polyreactivity (PSR sort gate)” value is given as “high polyreactivity”.

Regarding “QVQLQESDGGLVQAGGSLRLSCAASGSISPQYYMGWYRQAPGKEREFVAISKGTTTYYADSVKGRLTISRVNAKNTVYLQMNSLKPEDTAVYCCAAVRWLQKVHAYWDQGTQVTVSS”, the “polyreactivity (PSR sort gate)” value is recorded as “low polyreactivity”.

On to “QVQLVDSGGGLVQAGGSLRLSCAASGRIFYSNAMGWYRQAPGKVRELVAAITTSGASTYYADSVKGRFTISRDNAKNTVYLQLISMKPEDTAVYYCATYAVVYPFAMDYWGQGTQVTVSS”, for which the “polyreactivity (PSR sort gate)” value is “low polyreactivity”.

Consider “QVQLVESGGGLVQAGGSLRLSCAASGSTFIYNTMGSYRQAPGKERELVAAISGSGGRTYYADSVKGRFTISRDNAKNTVYLQMNSLKPEDTAVYYCAARYYTKLYWGQGTQVTVSS”, for which the “polyreactivity (PSR sort gate)” value is recorded as “high polyreactivity”.

For the sequence “QVQLVESGGGVVQAGGSLRLSCAASGRTFPGYAMGWYRQAAGKERELVAAITRGSTNYADSVKGRFTISRDNAKNTVYKQMNSLKPEATAVYYCAADFQYYFFWEEDYWGHGTQVTVSS”, the “polyreactivity (PSR sort gate)” value is “low polyreactivity”.

Turning to “QVQLVESGGGLVQAGGSLRLSCAASGSIFKKYAMGWYRQAPGKERELVAAISSTGGSTKYADSVKGRFTISRDNAKNTVYLQMNSLKPEDTAVYYCAVRYKWPYDYWGQGTQVTVSS”, the “polyreactivity (PSR sort gate)” value was “high polyreactivity”.

In the case of “QVQLVESGGGLVQAGGSLRLSCAASGSTFSYYAMGWYRQAPGKESELVAAISRTAVSTYYADSVKGRFTISRDNAKNTVYLQMYSLKPEDTAVYYCAASHYHGYSLGYDYWGQGTQVTVSS”, the “polyreactivity (PSR sort gate)” value was “high polyreactivity”.

For “QVQLVESGGGLVQAGGSLRLSCAASGSIFVGYAMGWYRQAPGKERELVAAINSSGDRTFYADSVKGRFTISRDNAKNTVYLQMNSLKREDTAVYYCNRVYVRAGVSVAYNYWGQGTQVTVSS”, the “polyreactivity (PSR sort gate)” value is “high polyreactivity”.
